From IntAct's records for PubMed 27332895

B1: Aurora kinase C (Homo sapiens), Q9UQB9 (parent)
chain: MSSPRAVVQLGKAQPAGEELATANQTAQQPSSPAMRRLTVDDFEIGRPLGKGKFGNVYLARLKESHFIVALKVLFKSQIEKEGLEHQLRREIEIQAHLQHPNILRLYNYFHDARRVYLILEYAPRGELYKELQKSEKLDEQRTATIIEELADALTYCHDKKVIHRDIKPENLLLGFRGEVKIADFGWSVHTPSLRRKTMCGTLDYLPPEMIEGRTYDEKVDLWCIGVLCYELLVGYPPFESASHSETYRRILKVDVRFPLSMPLGARDLISRLLRYQPLERLPLAQILKHPWVQAHSRRVLPPCAQMAS

Variants of: B1
Conditions: with ince_human INCENP

**Q.** Which “effect of a mutation on the interaction” value does the source give for MSSPRAVVQLGKAQPAGEELATANQTAQQPSSPAMRRLTVDDFEIGRPLGKGKFGNVYLARLKESHFIVALKVLFRSQIEKEGLEHQLRREIEIQAHLQHPNILRLYNYFHDARRVYLILEYAPRGELYKELQKSEKLDEQRTATIIEELADALTYCHDKKVIHRDIKPENLLLGFRGEVKIADFGWSVHTPSLRRKTMCGTLDYLPPEMIEGRTYDEKVDLWCIGVLCYELLVGYPPFESASHSETYRRILKVDVRFPLSMPLGARDLISRLLRYQPLERLPLAQILKHPWVQAHSRRVLPPCAQMAS [K76R] here?
**A.** disrupting interaction

Variants of: B1
Conditions: with ince_human INCENP
Remark: another data set of the same source

**Q.** With MSSPRAVVQLGKAQPAGEELATANQTAQQPSSPAMRRLTVDDFEIGRPLGKGKFGNVYLARLKESHFIVALKVLFKSQIEKEGLEHQLRREIEIQAHLQHPNILRLYNYFHDARRVYLILEYAPRGELYKELQKSEKLDEQRTATIIEELADALTYCHDKKVIHRDIKPENLLLGFRGEVKIADFGWSVHTPSLRRKAMCGTLDYLPPEMIEGRTYDEKVDLWCIGVLCYELLVGYPPFESASHSETYRRILKVDVRFPLSMPLGARDLISRLLRYQPLERLPLAQILKHPWVQAHSRRVLPPCAQMAS [T198A] as the variant, how does the “effect of a mutation on the interaction” value read?
**A.** disrupting interaction

**Q.** How did the “effect of a mutation on the interaction” value turn out when MSSPRAVVQLGKAQPAGEELATANQTAQQPSSPAMRRLTVDDFEIGRPLGKGKFGNVYLARLKESHFIVALKVLFKSQIEKEGLEHQLRREIEIQAHLQHPNILRLYNYFHDARRVYLILEYAPRGELYKELQKSEKLDEQRTATIIEELADALTYCHDKKVIHRDIKPENLLLGFRGEVKIADFGWSVHTPSLRRKTMCGALDYLPPEMIEGRTYDEKVDLWCIGVLCYELLVGYPPFESASHSETYRRILKVDVRFPLSMPLGARDLISRLLRYQPLERLPLAQILKHPWVQAHSRRVLPPCAQMAS [T202A] was run?
**A.** disrupting interaction
